The values that follow come from patent US20080044419A1, “Treatment of T Cell Mediated Diseases by Inhibition of Fgfr3” (Fibron Ltd., priority 2003, published 2008).

Where only a bound is given, the exact number is not on record here.

B1: PRO-029 (Fab, V domains shown)
VH: QVQLVQSGAEVKKPGASVKVSCKASGYTFTSYYMHWVRQAPGQGLEWMGWINPNSGGTNYAQKFQGRVTMTRDTSISTAYMELSSLRSEDTAVYYCARTWQYSYFYYLDGGYYFDIWGQGTLVTVSS
VL: DIVLTQSPATLSLSPGERATLSCRASQSVSSSYLAWYQQKPGQAPRLLIYGASSRATGVPARFSGSGSGTDFTLTISSLEPEDFATYYCQQTNNAPVTFGQGTKVEIKR
B2: PRO-026 (Fab, V domains shown)
VH: QVQLVQSGAEVKKPGASVKVSCKASGYTFTSYYMHWVRQAPGQGLEWMGWINPNSGGTNYAQKFQGRVTMTRDTSISTAYMELSSLRSEDTAVYYCARGYWYAYFTYINYGYFDNWGQGTLVTVSS
VL: DIALTQPASVSGSPGQSITISCTGTSSDVGGYNYVSWYQQHPGKAPKLMIYDVSNRPSGVSNRFSGSKSGNTASLTISGLQAEDEADYYCQSYDNNSDVVFGGGTKLTVLG
B3: PRO-002 (Fab, V domains shown)
VH: QVQLVQSGAEVKKPGASVKVSCKASGYTFTSYYMHWVRQAPGQGLEWMGWINPNSGGTNYAQKFQGRVTMTRDTSISTAYMELSSLRSEDTAVYYCARDFLGYEFDYWGQGTLVTVSS
VL: DIELTQPPSVSVAPGQTARISCSGDALGDKYASWYQQKPGQAPVLVIYDDSDRPSGIPERFSGSNSGNTATLTISGTQAEDEADYYCQSYDYSADYVFGGGTKLTVLG
B4: PRO-001 (Fab, V domains shown)
VH: QVQLQQSGPGLVKPSQTLSLTCAISGDSVSSNSAAWNWIRQSPGRGLEWLGRTYYRSKWYNDYAVSVKSRITINPDTSKNQFSLQLNSVTPEDTAVYYCARSYYPDFDYWGQGTLVTVSS
VL: DIELTQPPSVSVAPGQTARISCSGDALGDKYASWYQQKPGQAPVLVIYDDSDRPSGIPERFSGSNSGNTATLTISGTQAEDEADYYCQSYDGPDLWVFGGGTKLTVLG
B5: PRO-054 Fab-dHLX (protein)
VH: QVQLVQSGAEVKKPGASVKVSCKASGYTFTSYYMHWVRQAPGQGLEWMGWINPNSGGTNYAQKFQGRVTMTRDTSISTAYMELSSLRSEDTAVYYCARNMAYTNYQYVNMPHFDYWGQGTLVTVSS
VL: DIELTQPPSVSVAPGQTARISCSGDALGDKYASWYQQKPGQAPVLVIYDDSDRPSGIPERFSGSNSGNTATLTISGTQAEDEADYYCQSYDYFKLVFGGGTKLTVLGQ
B6: PRO-021 Fab-dHLX (protein)
VH: QVQLVQSGAEVKKPGSSVKVSCKASGGTFSSYAISWVRQAPGQGLEWMGGIIPIFGTANYAQKFQGRTITADESTSTAYMELSSLRSEDTAVYYCARDNWFKPFSDVWGQGTLVTVSS
VL: not shown
B7: PRO-024 Fab-dHLX (protein)
VH: QVQLVQSGAEVKKPGSSVKVSCKASGGTFSSYAISWVRQAPGQGLEWMGGIIPIFGTANYAQKFQGRVTITADESTSTAYMELSSLRSEDTAVYYCARVNHWTYTFDYWGQGTLVTVSS
VL: not shown
B8: PRO-029 Fab-dHLX (protein)
VH: QVQLVQSGAEVKKPGASVKVSCKASGYTFTSYYMHWVRQAPGQGLEWMGWINPNSGGTNYAQKFQGRVTMTRDTSISTAYMELSSLRSEDTAVYYCARTWQYSYFYYLDGGYYFDIWGQGTLVTVSS
VL: DIVLTQSPATLSLSPGERATLSCRASQSVSSSYLAWYQQKPGQAPRLLIYGASSRATGVPARFSGSGSGTDFTLTISSLEPEDFATYYCQQTNNAPVTFGQGTKVEIKRT
B9: PRO-026 Fab-dHLX (protein)
VH: QVQLVQSGAEVKKPGASVKVSCKASGYTFTSYYMHWVRQAPGQGLEWMGWINPNSGGTNYAQKFQGRVTMTRDTSISTAYMELSSLRSEDTAVYYCARGYWYAYFTYINYGYFDNWGQGTLVTVSS
VL: DIALTQPASVSGSPGQSITISCTGTSSDVGGYNYVSWYQQHPGKAPKLMIYDVSNRPSGVSNRFSGSKSGNTASLTISGLQAEDEADYYCQSYDNNSDVVFGGGTKLTVLGQ
B10: PRO-055 Fab-dHLX (protein)
VH: QVQLVQSGAEVKKPGASVKVSCKASGYTFTSYYMHWVRQAPGQGLEWMGWINPNSGGTNYAQKFQGRVTMTRDTSISTAYMELSSLRSEDTAVYYCARSMNSTMYWYLRRVLFDHWGQGTLVTVSS
VL: DIALTQPASVSGSPGQSITISCTGTSSDVGGYNYVSWYQQHPGKAPKLMIYDVSNRPSGVSNRFSGSKSGNTASLTISGLQAEDEADYYCQSYDMYNYIVFGGGTKLTVLGQ
B11: PRO-012 Fab-dHLX (protein)
VH: QVQLKESGPALVKPTQTLTLTCTFSGFSLSTSGVGVGWIRQPPGKALEWLALIDWDDDKYYSTSLKTRLTISKDTSKNQVVLTMTNMDPVDTATYYCARYHSWYEMGYYGSTVGYMFDYWGQGTLVTVSS
VL: DIELTQPPSVSVAPGQTARISCSGDALGDKYASWYQQKPGQAPVLVIYDDSDRPSGIPERFSGSNSGNTATLTISGTQAEDEADYYCQSYDFDFAVFGGTKLTVLGQ
B12: PRO-001 Fab-dHLX (protein)
VH: QVQLQQSGPGLVKPSQTLSLTCAISGDSVSSNSAAWNWIRQSPGRGLEWLGRTYYRSKWYNDYAVSVKSRITINPDTSKNQFSLQLNSVTPEDTAVYYCARSYYPDFDYWGQGTLVTVSS
VL: DIELTQPPSVSVAPGQTARISCSGDALGDKYASWYQQKPGQAPVLVIYDDSDRPSGIPERFSGSNSGNTATLTISGTQAEDEADYYCQSYDGPDLWVFGGGTKLTVLGQ
B13: PRO-002 Fab-dHLX (protein)
VH: QVQLVQSGAEVKKPGASVKVSCKASGYTFTSYYMHWVRQAPGQGLEWMGWINPNSGGTNYAQKFQGRVTMTRDTSISTAYMELSSLRSEDTAVYYCARDFLGYEFDYWGQGTLVTVSS
VL: DIELTQPPSVSVAPGQTARISCSGDALGDKYASWYQQKPGQAPVLVIYDDSDRPSGIPERFSGSNSGNTATLTISGTQAEDEADYYCQSYDYSADYVFGGGTKLTVLGQ

The first test deals with fibroblast growth factor receptor 3 (FGFR3) (UniProt P22607). Briefly: FACS.
The molecule B1 had a Kd below 1 nM.
As to B2, the dissociation constant Kd is 1.4 nM.
B3: the Kd was 43 nM.
Take B4: the dissociation constant Kd amounted to 0.7 nM.

A further test shares this target. The experiment in a line: BIAcore.
B4 gave a Kd of 1.5 nM. This lies in the single-digit nanomolar range.

For the next test the target is unchanged. Briefly: not stated (BIAcore presumably).
B4 yielded an off-rate (koff) of 0.00071 s⁻¹.

The target in a further test is fibroblast growth factor receptor 3 (FGFR3), P22607. The experiment in a line: cell-based or functional assay.
With B5, the IC50 FGFR3 (FGF9), FDCP-FGFR3 proliferation assay performed with FGF9 worked out at 45 nM.
B6 showed an IC50 FGFR3 (FGF9), FDCP-FGFR3 proliferation assay performed with FGF9 of 50 nM.
The same measure, in the same setting: as for B7, the figure is 70 nM.
In turn, B8 yielded an IC50 FGFR3 (FGF9), FDCP-FGFR3 proliferation assay performed with FGF9 of 20 nM.
B9 came in with an IC50 FGFR3 (FGF9), FDCP-FGFR3 proliferation assay performed with FGF9 of 70 nM.
On to B10, for which the IC50 FGFR3 (FGF9), FDCP-FGFR3 proliferation assay performed with FGF9 is 34 nM.
B11 had an IC50 FGFR3 (FGF9), FDCP-FGFR3 proliferation assay performed with FGF9 of 58 nM.
Turning to B12, the IC50 FGFR3 (FGF9), FDCP-FGFR3 proliferation assay performed with FGF9 was found to be 19 nM.
The same measure, in the same setting: as for B13, the figure is 360 nM.
